# From publication PMC4011751, “Recombinant Expression and Characterization of the Cytoplasmic Rice β-Glucosidase Os1BGlu4” (PLoS ONE, 2014)
# T1: rOs1BGlu4 (Oryza sativa, UniProt Q5N863)
# T1 construct: gene BGLU4; full-length ORF (483 aa, no signal peptide, about 55 kDa) in pET32a(+), E. coli Origami B(DE3); Trx-His6 tag removed with enterokinase
# T1 sequence (Q5N863 1-483): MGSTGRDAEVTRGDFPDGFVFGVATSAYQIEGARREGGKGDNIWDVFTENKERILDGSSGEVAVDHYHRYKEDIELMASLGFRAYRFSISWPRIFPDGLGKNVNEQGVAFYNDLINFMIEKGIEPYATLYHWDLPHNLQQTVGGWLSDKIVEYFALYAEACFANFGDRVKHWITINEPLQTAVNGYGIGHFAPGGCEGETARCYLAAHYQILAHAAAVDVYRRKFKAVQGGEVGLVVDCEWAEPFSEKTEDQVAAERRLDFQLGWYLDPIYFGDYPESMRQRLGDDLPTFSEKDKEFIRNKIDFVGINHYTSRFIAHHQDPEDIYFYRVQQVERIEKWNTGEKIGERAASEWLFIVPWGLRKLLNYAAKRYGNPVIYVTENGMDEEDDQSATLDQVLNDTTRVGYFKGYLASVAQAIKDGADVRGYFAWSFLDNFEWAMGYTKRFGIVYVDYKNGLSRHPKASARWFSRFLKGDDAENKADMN
# Columns and labels:
# [1] = molecular target: T1, rOs1BGlu4; assay: inhibition of pNPGlc hydrolysis, […] nm; type: biochemical; settings: read-out: Relative activity remaining (%)
# [2] = substrate: O=[N+]([O-])c1ccc(O[C@@H]2OC[C@H](O)[C@H](O)[C@H]2O)cc1; assay: purified protein; type: biochemical, Oryza sativa; settings: 50 mM sodium phosphate pH 6.5, 30°C (standard assay)
# [3] = substrate: C[C@H]1O[C@@H](Oc2ccc([N+](=O)[O-])cc2)[C@H](O)[C@@H](O)[C@H]1O; assay: purified protein; type: biochemical, Oryza sativa; settings: 50 mM sodium phosphate pH 6.5, 30°C (standard assay)
# [4] = substrate: O=[N+]([O-])c1ccc(O[C@@H]2O[C@H](CO)[C@@H](O)[C@H](O)[C@@H]2O)cc1; assay: purified protein; settings: 50 mM sodium phosphate pH 6.5, 30°C (standard assay)
# [5] = substrate: O=[N+]([O-])c1ccc(O[C@@H]2O[C@H](CO)[C@H](O)[C@H](O)[C@H]2O)cc1; assay: purified protein; settings: 50 mM sodium phosphate pH 6.5, 30°C (standard assay)
# [6] = substrate: O=[N+]([O-])c1ccc(O[C@@H]2O[C@H](CO)[C@@H](O)[C@H](O)[C@H]2O)cc1; assay: purified protein; settings: 50 mM sodium phosphate pH 6.5, 30°C (standard assay)
# [7] = substrate: O=[N+]([O-])c1ccc(O[C@@H]2O[C@H](CO)[C@@H](O[C@@H]3O[C@H](CO)[C@@H](O)[C@H](O)[C@H]3O)[C@H](O)[C@H]2O)cc1; assay: initial-rate hydrolysis, glucose release by peroxidase/glucose oxidase assay, nonlinear Michaelis-Menten fit; type: biochemical, Oryza sativa; settings: 50 mM sodium phosphate pH 6.5, 30°C (standard assay)
molecule,measurement,setting,value
OC[C@H]1OC(O)[C@@H](O)[C@@H](O)[C@@H]1O (stereo partly drawn) [D-Mannose],remaining activity at 10000 µM,[1],73%
OC[C@H]1OC(O)[C@H](O)[C@@H](O)[C@@H]1O (stereo partly drawn) [D-Glucose],remaining activity at 10000 µM,[1],90%
N[C@H]1C(O)O[C@H](CO)[C@@H](O)[C@@H]1O (stereo partly drawn) [D-Glucosamine],remaining activity at 10000 µM,[1],84%
OC1OC[C@H](O)[C@H](O)[C@H]1O (stereo partly drawn) [L-Arabinose],remaining activity at 10000 µM,[1],61%
OC[C@H]1OC(O)[C@H](O)[C@@H](O)[C@H]1O (stereo partly drawn) [D-Galactose],remaining activity at 10000 µM,[1],93%
O=C1O[C@H](CO)[C@@H](O)[C@H](O)[C@H]1O [δ-glucono-lactone],remaining activity at 1000 µM,[1],14%
OC1OC[C@@H](O)[C@H](O)[C@H]1O (stereo partly drawn) [D-Xylose],remaining activity at 10000 µM,[1],85%
"rOs1BGlu4 (Oryza sativa Japonica Group) (protein, full-length ORF (483 aa, no signal peptide, about 55 kDa) in pET32a(+), E. coli Origami B(DE3); Trx-His6 tag removed with enterokinase) MGSTGRDAEVTRGDFPDGFVFGVATSAYQIEGARREGGKGDNIWDVFTENKERILDGSSGEVAVDHYHRYKEDIELMASLGFRAYRFSISWPRIFPDGLGKNVNEQGVAFYNDLINFMIEKGIEPYATLYHWDLPHNLQQTVGGWLSDKIVEYFALYAEACFANFGDRVKHWITINEPLQTAVNGYGIGHFAPGGCEGETARCYLAAHYQILAHAAAVDVYRRKFKAVQGGEVGLVVDCEWAEPFSEKTEDQVAAERRLDFQLGWYLDPIYFGDYPESMRQRLGDDLPTFSEKDKEFIRNKIDFVGINHYTSRFIAHHQDPEDIYFYRVQQVERIEKWNTGEKIGERAASEWLFIVPWGLRKLLNYAAKRYGNPVIYVTENGMDEEDDQSATLDQVLNDTTRVGYFKGYLASVAQAIKDGADVRGYFAWSFLDNFEWAMGYTKRFGIVYVDYKNGLSRHPKASARWFSRFLKGDDAENKADMN",Km,[2],380 ± 20 µM
same,kcat,[2],0.52 s⁻¹
same,kcat/Km,[2],1370 M⁻¹ s⁻¹
same,Km,[3],710 ± 20 µM
same,kcat,[3],6.61 ± 0.08 s⁻¹
same,kcat/Km,[3],9340 M⁻¹ s⁻¹
same,Km,[4],2240 ± 30 µM
same,kcat,[4],1.25 s⁻¹
same,kcat/Km,[4],560 M⁻¹ s⁻¹
same,Km,[5],7330 ± 320 µM
same,kcat,[5],3.16 s⁻¹
same,kcat/Km,[5],430 M⁻¹ s⁻¹
same,Km,[6],710 ± 20 µM
same,kcat,[6],12.8 s⁻¹
same,kcat/Km,[6],17900 M⁻¹ s⁻¹
same,Km,[7],140 ± 10 µM
same,kcat,[7],3.44 ± 0.18 s⁻¹
same,kcat/Km,[7],24400 M⁻¹ s⁻¹
